This note sets out measurements from patent US20230295323A1 (DONGDA BIOSCIENCE INC SUZHOU, published 2023).

Sequences and labels used below:
B1: 3F5 (humanized) -hIgG1 (antibody, V domains shown)
VH: QVQLVQSGAEVKKPGASVKVSCKASGYTFTDHYMHWVRQAPGQGLEWIGDINPNSGGTINNQNFKGRATLTVDKSISTAYMELSRLRSDDTAVYYCARGFSGLAYWGQGTLVTVSS
VL: DIVMTQTPLSSPVTLGQPASISCKSSQSLLDRDGKTYLNWLQQRPGQPPRRLIYLVSILDSGVPDRFSGSGAGTDFTLKISRVEAEDVGVYYCWQGTHFPWTFGQGTKLEIKR
notes: also called h3F5-hIgG1; h3F5-IgG1
B2: h4E4-hIgG1 (antibody, V domains shown)
VH: QVQLVQSGAEVKKPGASVKVSCKASGYTFTDHYMNWVRQAPGQGLEWIGDIDPKNGGTLYNQNFKGRATLTVDKSISTAYMELSRLRSDDTAVYYCARREAMDYWGQGTLVTVSS
VL: DVVMTQSPLSLPVTPGEPASISCRSSQSIVYSNGNTYLNWYLQKPGQSPQLLIYKVSNRFSGVPDRFSGSGSGTDFTLKISRVEAEDVGVYYCFQGSHVPWTFGGGTKVEIKR
notes: Humanized 4E4, human IgG1; also called 4E4 (humanized); h4E4-IgG1
B3: h4B11-hIgG1 (antibody, V domains shown)
VH: EVQLVQSGAEVKKPGASVKVSCKASGFTFTDSVLHWVRQAPGQRLEWIGYIHPYNDDTKFHDSFKGRATLTSDKSASTAYMELSSLRSEDTAVYYCSRNDELRVALDYWGQGTLVTVSS
VL: EIVLTQSPATLSLSPGERATLSCRASQSVSTSTYSYVHWYQQKPGQAPRLLIKYASNLESGIPARFSGSGSGTDFTLTISSLEPEDFAVYYCQHSWGNPWTFGGGTKVEIKR
notes: Humanized 4B11, human IgG1; also called 4B11 (humanized); h4B11-IgG1
B4: 10E11VH(G24A/A67V)-hIgG1(3A) (antibody)
heavy: EVQLVQSGAEVKKPGESLRISCKASGYPVSRYWIEWVRQMPGKGLEWIGEILPGSDYANYNEKFKGHVTFSADISISTAYLQWSSLKASDTAMYYCSRKGAYYALDFWGQGTLVTVSSASTKGPSVFPLAPSSKSTSGGTAALGCLVKDYFPEPVTVSWNSGALTSGVHTFPAVLQSSGLYSLSSVVTVPSSSLGTQTYICNVNHKPSNTKVDKKVEPKSCDKTHTCPPCPAPELLGGPSVFLFPPKPKDTLMISRTPEVTCVVVDVSHEDPEVKFNWYVDGVEVHNAKTKPREEQYNATYRVVSVLTVLHQDWLNGKEYKCKVSNKALPAPIAATISKAKGQPREPQVYTLPPSRDELTKNQVSLTCLVKGFYPSDIAVEWESNGQPENNYKTTPPVLDSDGSFFLYSKLTVDKSRWQQGNVFSCSVMHEALHNHYTQKSLSLSPG
light: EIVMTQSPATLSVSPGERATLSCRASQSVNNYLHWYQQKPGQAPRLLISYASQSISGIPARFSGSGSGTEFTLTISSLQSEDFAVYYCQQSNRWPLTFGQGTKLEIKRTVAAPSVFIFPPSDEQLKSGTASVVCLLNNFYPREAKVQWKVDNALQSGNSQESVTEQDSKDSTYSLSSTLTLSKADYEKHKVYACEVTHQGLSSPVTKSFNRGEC
notes: Humanized 10E11 (AV), human IgG1 with the 3A Fc variant; also called 10E11VH(AV)-hIgG1(3A); h10E11(AV)-hIgG1(3A)
B5: 4E4 (murine) (antibody, V domains shown)
VH: EVQLQQSGPELVKPGASVKISCKASGYTFTDHYMNWVKQSHGKSLEWIGDIDPKNGGTLYNQNFKGRATLTVDKSSSTAYMDLRSLTSEDSAVYYCARREAMDYWGQGTSVTVSS
VL: B2 VL with V3L, S7I, T14S, P15F, E17D, P18Q, Q50K, V88L, V109L
notes: Mouse hybridoma monoclonal antibody
B6: 13G12 (murine) (antibody, V domains shown)
VH: QVQLQQPGTELVKPGASVKLSCKASGYTFTSNWMNWVKQRPGHGLEWIGNIYPSNGGTNYNEKFKSKATLTVDKSSSTAYMQLRGLTSEDSAVYYCVRHSNYVGAMDYWGQGTSVTVSS
VL: QIVLTQSPAIMSASPGEKVTMTCGASSSVSYMYWFQQKPGSSPRLLIYDTFNLASGVPVRFSGSESGTSYSLTISRMEAEDAATYYCQHWSSYPPTFGSGTKLEIDR
notes: as for B5
B7: 9B3 (murine) (antibody, V domains shown)
VH: QVQLQQSGAELMNLGASVKISCKATGYPVSRYWIEWLKQRPGHGPEWIGEILPGSDYANYNEKFKGKATFTADISSNSAYMQLSSLTSEDSAVYYCSRKGAYYALDFWGQGTSVTVSS
VL: DIVMTQSPATLSVTPGERVSLSCRASQSVNNYLHWYQQKSHESPRLLISYVSQSISGISSRFSGSGSGTDFTLIIHSVETEDFGMYFCQQSNRWPLTFGAGTKLELK
notes: as for B5

Where a chain is given by its changes, count along the chain named. Numbers in names are those of the source.

One assay concerns the target T1, human GITR (ECD)-mFc (human, UniProt Q9Y5U5 26-162).
T1 construct: extracellular domain; Bought (Dongda Bioscience); also called GITR-mFc; not shown: mouse Fc (mFc)
T1 sequence (looked up): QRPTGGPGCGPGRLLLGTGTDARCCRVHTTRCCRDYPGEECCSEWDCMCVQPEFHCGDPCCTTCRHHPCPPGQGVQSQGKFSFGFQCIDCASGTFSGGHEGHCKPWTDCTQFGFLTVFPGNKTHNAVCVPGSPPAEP
As to the kind of experiment: ELISA, plate-coated GITR-mFc. The method, then: As indicated by the X axis, the concentrations of the test antibodies were 20000 ng/mL, 2000 ng/mL, 200 ng/mL, 20 ng/mL, 2 ng/mL, 0.2 ng/mL, 0.02 ng/mL, 0.002 ng/mL, 0.0002 ng/mL, and 0.00002 ng/mL.
(In general: In an ELISA, binding on a coated surface is turned into a signal by an enzyme label.)
For orientation: EC50 (read off the curve) means the midpoint of the concentration-response curve. Regarding B1, the “EC50 (read off the curve)” value is approximately 0.02 µg/mL.
The same measure, in the same setting: the figure for B2 is approximately 0.06 µg/mL.
Still for that read-out and setting: the figure for B3 is approximately 0.005 µg/mL; for B4 it is approximately 0.006 µg/mL.

A further assay deals with T2, human GITR on cells (293T-GITR, Jurkat-hGITR / Jurkat-GITR, Jurkat-GITR-NF-kB, 293T-GITR-NFkb-luc, primary … (human, UniProt Q9Y5U5 26-241)).
T2 construct: whole, on cells; also called TNFRSF18; CD357
T2 sequence (looked up): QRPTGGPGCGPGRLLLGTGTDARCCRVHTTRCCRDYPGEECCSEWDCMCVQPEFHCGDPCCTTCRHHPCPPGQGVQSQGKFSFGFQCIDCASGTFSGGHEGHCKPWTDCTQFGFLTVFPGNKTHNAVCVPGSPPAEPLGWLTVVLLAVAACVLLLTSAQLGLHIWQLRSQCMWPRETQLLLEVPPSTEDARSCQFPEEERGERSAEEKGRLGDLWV
As to the kind of experiment: FACS (MFI), binding to Jurkat-GITR cells.
Broadly, the EC50 is the concentration at which the effect is half-maximal. A higher EC50 goes with lower potency in that assay. On to B1, for which a half-maximal response (EC50) required 0.112 µg/mL.
On the same count and under the same terms, under B2 stands 0.0895 µg/mL; under B3, 0.132 µg/mL.
The molecule B4 came in with an EC50 of 0.102 µg/mL.

The next assay addresses T3, GITR-ECD-hFc (UniProt Q9Y5U5 26-162, limits assumed).
T3 construct: extracellular domain; not shown: human Fc (hFc)
T3 sequence (looked up): T1 sequence (looked up)
As to the kind of experiment: ELISA, plate-coated GITR-ECD-hFc. Here is the method: ELISA assay: a 96-well ELISA plate (Corning, Cat No: 9018) was inoculated with GITR-ECD-hFc, left standing overnight at 4° C., and washed 3 times with washing buffer (PBS+0.05% Tween 20), then blocking buffer (PBS+1% BSA (Sigma, Cat No: V90093)) was added, and the 96-well ELISA plate was incubated for 1 hour and washed 3 times; hybridoma supernatant was added, the 96-well ELISA plate was incubated for 1 hour and washed 3 times, 100 µL of goat anti-mouse IgG secondary antibodies (Thermo, Cat No: 31432) diluted at a ratio of 1:10000 was added into each well, and the 96-well ELISA plate was incubated at room temperature for 1 hour and washed 3 times. 100 µL of TMB (Biosubstrate Technologies, Cat No: ES-002) was added into each well and left standing for 3 minutes for color development, then a stop solution (2N H₂SO₄) was added at a dose of 100 µL/well to terminate the reaction, and OD450×signal of each sample was measured with a Tecan Spark microplate reader.
Regarding B5, the midpoint of the response, the EC50, lay at 0.0017 µg/mL.
The same measure, in the same setting: under B6 stands 0.0103 µg/mL.

The target in another assay is T2, human GITR on cells (293T-GITR, …). As to the kind of experiment: FACS competition on Jurkat-hGITR cells; competitor biotin-labeled human GITR ligand. Here is the method: FACS assay for the blocking effect of the antibodies: FACS assay was conducted by using BD C6 to determine the blocking effect of the hybridoma antibodies on the binding of biotin-labeled human GITR ligands to Jurkat-hGITR cells. Jurkat-hGITR cells were suspended in FACS buffer (PBS containing 3% FBS). Diluted hybridoma antibodies were added into the cell suspension and the mixture was incubated in a 96-well plate for 1 hour at 4° C. […] After incubation, the 96-well plate was washed 3 times, and mouse anti-biotin PE antibodies (Biolgend, Cat No: 409004) were added and incubated at 4° C. for 0.5 hours. The cells in the 96-well plate were washed 3 times and finally analyzed with BD C6.
Usually IC50 stands for the concentration that gives 50% inhibition. The low end stands for greater potency, the high end for weaker potency. Take B6: the IC50 came to 4 µg/mL.
As for B7, the IC50 is 0.0413 µg/mL. This IC50 lies about 97-fold lower than the previous one.

The target is the same in another assay. As to the kind of experiment: FACS, blocking of GITR-L (0.25 ug/mL) binding to Jurkat-GITR cells. For orientation: Flow cytometry measures light scatter and fluorescence of single cells or particles in a stream.
For the molecule B1, the half-maximal inhibitory concentration (IC50) was found to be 0.101 µg/mL.
For the molecule B2, the IC50 was 0.169 µg/mL.
As to B3, the IC50 came to 0.284 µg/mL.
The molecule B4 gave an IC50 of 0.151 µg/mL.
